Test results taken from the DeepSol protein solubility set.

Test: soluble on expression in E. coli; label from the status in PepcDB or PDB records

Sequence: MNQILNKLQHIKPIEIIIVADDRMSAIQSIPTFVECNVVVIEEKNKWKAPVHGAKVANGDVVLFLDGEDVIFSVELERFIEPLLKKEQDVILNNIDSVCFEKMRVEWPSIAMVYRKIVNDVLGRMDLKYDSMLSMPYAITKKAIKDIGYDILQNPILSQVTLIEKGWPLHSSSAITNTSLNNITSNNTSFYKNELTKLEVCEIKENVKALESWLQRKDDRGNYTDGGRKREVIEQLKKQKNYSLFHKGWGMNSSIYNGKQLSIIIPAQNEEATIKEVILEARKIEPKEIIVVINGSTDQTEAIAKQLGATVIVYEEALGHDVGRAIGAQEATGDILLFIDADFAIPAKDLHPLTKAVVDGVDIALNDLNLNLRFPLYIVNLYKYMLNIACNRKDLGVGSTIAVPHAISRKCLEGIGWDTLHTSCVAQVKAILEGYKVECVHFVDVMKPNRIRPQEHFATIGHPPAVLRITGDHLEGLSYLLKHRDFKDLF
- soluble on expression in E. coli: not soluble

Sequence: MAHHHHHHMSLPIIRLRTVNSNHATAAYDPVTASCTLYGFLRSVPSRFECDMAMSDFKRGVQAAQGQKCLAKNNANMLNRVFSSVQDRLLRELPKIIPQLARNSSTWRRLLSGAESTSSMSSTPTATRLQDNARSLHNEESTQPSIPSTPLPSAGTGENGNKGNHKNGDHHSSAEEILVEETVSTTSTRFKSPYEQIPPPIHLTASEHKESRATGGMQGEAGERKDASTVVEHRGKGNNLPGKGYRPHPLLLAILERVRSSCSAEENESDREEREFTTIMESREKALRTKLSSAYSMIPPEEKNFKGFLREMEARVAVAQKLFEVQKFEETTIRTTECALKIEVATMRALLHQIVDAVAEAEERHEREGPRSPYYAEECHVMAAIQQALDDLAS
- soluble on expression in E. coli: not soluble

Sequence: MEVYIPSFRYEESDLERGYTVFKIEVLMNGRKHFVEKRYSEFHALHKKLKKCIKTPEIPSKHVRNWVPKVLEQRRQGLETYLQAVILENEELPKLFLDFLNVRHLPSLPKAESCGSFDETESEESSKLSHQPVLLFLRDPYVLPAASDFPNVVIEGVLHGIFYPHLQPR
- soluble on expression in E. coli: soluble

Sequence: SLDMQHRIRQLFQASIETKQQALEVLPPYIEQASLVMVNALLNEGKILSCGNGGSAGDAQHFSSELLNRFERERPSLPAVALTTDSSTITSIANDYSYNEVFSKQIRALGQPGDVLLAISTSGNSANVIQAIQAAHDREMLVVALTGRDGGGMASLLLPEDVEIRVPSKITARIQEVHLLAIHCLCDLIDRQLFGSEEEG
- soluble on expression in E. coli: soluble

Sequence: MLKKKVNNDAGKTFILISSSCSSCQKAIEYFKENNLSYTIENFYKKPISDKRFRDILSLSEDGTESLFSKRADQIRSNTNQSVEDLTIPELIKLIRERPSILRRPIIIQYNSSGIPKRMRIGYNAAEIKVFERSLMEPKVRTVKK
- soluble on expression in E. coli: soluble

Sequence: MKKIGFIGLGNMGLPMSKNLVKSGYTVYGVDLNKEAEASFEKEGGIIGLSISKLAETCDVVFTSLPSPRAVEAVYFGAEGLFENGHSNVVFIDTSTVSPQLNKQLEEAAKEKKVDFLAAPVSGGVIGAENRTLTFMVGGSKDVYEKTESIMGVLGANIFHVSEQIDSGTTVKLINNLLIGFYTAGVSEALTLAKKNNMDLDKMFDILNVSYGQSRIYERNYKSFIAPENYEPGFTVNLLKKDLGFAVDLAKESELHLPVSEMLLNVYDEASQAGYGENDMAALYKKVSEQLISNQK
- soluble on expression in E. coli: soluble

Sequence: MSLKILILGGTRFLGRAFVEKALNRGYEVTLFNRGTNKEIFPEVEQLIGDRNGDVSSLENRKWDVVVDTCGFSPHHIRNVGEVLKDNIEHYIFISSLSVYKDWIPHHIKEDYILQPEPTAEQIKAVENGEVSPYEYYGALKVLCEKEAEKYWPGRVLHVRAGLLSGMFDYTDRLPYWIGRVAKGGEVLVPGRKDRPVQIVDIKDVANWGLNMAENNKAGIFNVTGPNYDLTMEELLNTCKKVTNSDAEFVWIEESFMNEHKVQPWTEMPLWIPETFSLEGETKPWKGGFSISINSAIKAGLTFRRLEDTVMDVYVWMKSIEEWELKAGISGEREKELLEKWYQEGHHHHHH
- soluble on expression in E. coli: soluble

Sequence: MINVSDLTQKLPEGSNAGVIAKNINQNQIIADYNGSTFMLPASTQKVFTAVAAKLALGDQFQFETALLSNGKIQNGNLDGNLIVSFTGDPDLTRGQLYSLLAELKKQGIKKINGDLVLDTSVFSSHDRGLGWIWNDLTMCFNSPPAAANIDNNCFYAELDANKNPGEIVKINVPAQFPIQVFGQVYVADSNEAPYCQLDVVVHDNNRYQVKGCLARQYKPFGLSFAVQNTDAYAAAIIQRQLRKLGIEFNGKVLLPQKPQQGQLLAKHLSKPLPDLLKKMMKKSDNQIADSLFRAVAFNYYKRPASFQLGTLAVKSILQKQGIRFGNSILADGSGLSRHNLVAPKTMLSVLEYIAKNEDKLHLMETFPIAGVDGTISGRGGLISPPLVKNVIAKTGSLKGVYNLAGFMTNARGEKVAFVQFINGYSTGDLESKTKRAPLVQFERNLYNELYKY
- soluble on expression in E. coli: soluble

Sequence: MVMSIEASCHCGETVFEVTEAPSSVTRCTCSLCAKRGSLWAYYKPAQFRLLSPPENVTTYLWGSRTVKHHFCASCGCGTYSESPDWSTGKPDFDNPKVAVNARLFDDFDLDAVPVNMIDGKNLWLEHHHHHH
- soluble on expression in E. coli: soluble

Sequence: MSLKNTPPGFPSHSSATLAFALAIAAGGAQAAGFVEDAKGTLTLRNFFINRDFKGDNATRSKAEEWTQNFLLDLKSGYTEGPLGLGLDVLGLYSVKLDGGKGTGGTQLLPLDHDGKPADRFGRLAVAGKLKLSETELRAGEWALVLPILRSDDGRSLPQTFRGSMLTSKEIENLTLYAGHITGNSPRDDGSMEEMTLFGTSPYTSDRTSDDFDFGGLEYSFNGKRTLVGVWYARLKDIYKQRYIQLQHSQPLGGDWTLGANIGYFDGEDDGEALEGHLDNKALSGLFSLRTGAHTFYLGLQRISGDSKWLRVNGTSGGTLANDSYNSSYDNARERSWQLRYDYNFAALGMPGLTFMTRYISGKNIHVGAVDDGEEWGRESEVAYVVQSGAAKNLTLRWRNTTMRRDYGSDNQFNEQRLIVQYPLSLFEGHHHHHH
- soluble on expression in E. coli: soluble

Sequence: MGSDKIHHHHHHMKFNIKSVKNYRLPMSWQHIQKGTMYCSLINEFFADWFQKVLGDQWLMIGGLSAELELNLPLRHKIILMPEMTKNPTALFPANQNVTEEISLIQADPLQLPFVQQSIHACVLANTLNFTQHSHQLLGEIARVLENDGYLFISLFNPYSPLIFKQNLNHKNQTALPFKQYFTWRILDWIKLLNFEILDQVNLSEKKQQDCFSPLTLIVAQKRTYPFPLYKIKNKIVPYQSFQFMGENTKNAT
- soluble on expression in E. coli: not soluble

Sequence: SLGTLPPELQNTCVARGKLPLLLDLDNTLLHAQAASATGCDVRLQDWIDPYGEPELYRFELPCNRKTYYMKLRPHLRTFLKKLEPFYEMSVYTNATQEYADIVIAILDGNRQLFQDRIVARDSGFRGEASENKAVRRLYEGMDKRCIVAFDDRQNIWTDLPLTHVVKAQHYDFFDSHKTELNAYYPPLSNGIEGMTAPDVLGNRQNED
- soluble on expression in E. coli: soluble

Sequence: IDLSNALPGSRRGFLKGAAVVGLTIGFQWSGARRALAAALPDAGFAPNAFLRIAPDDSVTVIAKHVEMGQGAYTGIATIVAEELDADWSKVRVESAPADAKRYANLAFGTMQGTGGSSAMANSWMQLREAGAKARAMLVEAAARQWQVPAAELRTRDGFVEHPTSQRKASYGSLAAAAAELPVPEKVQLKDPKDFRLIGHQAPRVDVPGKTDGSAQFTLDVSLPGMLVALLQRPPLFGATVKSFDATATRAIPGVVEVVQVPHGVAVVAKGFWAAKQGRDALKVEWDESKAEKRGSEALMAEYRKLAEQPGKPARRDGDAAKAVAGATRRIAASYEFPFLAHAPMEPLDAVVRLTADSCEIWAGDQFQTVDQGNAARTAGLKPEQVKINTLYAGGSFGRRANAWSDYIVEAVSIAKALGANGVPVKLQWTREDDIHGGFYRPMYYHRLEAGLDADGKLVGWQHRIVGQSILEGTPFAAVMVKDGIDATSVEGAANLPYAVPNVSVELSTTQVGVPVLWWRVVGSSHTVYAVEAFIDEAAQAAGKDPYLFRRDLLAEQPRLRGVLELAAEKAGWDPSRPLPAGRGRGIAVTEAFKTFVAQVVEVSVDKDGKLKVERVVCAVDCGIPINPDVIAAQMEGGIGFGLGAILHSAITLKDGKVEQNNFDGYQVLRIAEMPKVEVHIVPSGEAPTGVGEPGVAPIGPALANAIFAATGQRLYNLPFPTSFA
- soluble on expression in E. coli: not soluble

Sequence: MVDKIIFTVTPIFSIPPRGAAAVETWMYQVAQRTNFPNRIVCIKNPGYSNYTFVNDNCSIHRVGFSRIYKRLFQKWTRLDPLPYSQRILNIAHDFPITKESVIVVHNSMKLYTQIRKRAPQARVVIHMHNAFEPKLLEQNVKMIVPSLYLKKYYQSYLANADIEIVPNGIDLETYQSNFQPITRSELNISPEEKIIFYAGRIVPDKGILLLMQSFEKLAAAHKNLKLVVIGDYTEMSKSDKGAYQRNVREIAKRLKDRCIMLGSIPPEKMHCYYPLADLVVIPSQFQEPFCMVAIEAMGAGKPVLVSTRGGMTEFVKENTTGFHLKEPMTADSISSDILKTLANPELTAVAKQGQDFVFDHYSWDGVTQRFEEVIHNWFE
- soluble on expression in E. coli: not soluble

Sequence: MKTKNEPKVILELAKESDLPEFQKKLQEAFAIAVIETFGDCEDGPIPSDNDVQESFNAPGAVVYHILQDGKNVGGAVVRINSQTNHNSLDLFYVSPEYHSQGIGLSAWKAIEAQYPDTVLWETVTPYFEKRNINFYVNKCGFHIVEFYNEHHSNPHMHRNGREDDKPLLNDDDFFRFVKIMKKKD
- soluble on expression in E. coli: not soluble

Sequence: MGSDKIHHHHHHMRRKIPSSASLQAFDAAARHGNFARAAEELSLTEGAISRQIARLEALLNCKLFDRMGSRVKLNPVGAHYAHHVRETLDRLERDTQYIMGMPEGSKSLDIAVLPTFSNRWLIPRLSGFNSLFPDITLNIAARTDPFILPGSGFDAVIHFEHSAWTGMRMQFLFQENLLPVCNPALLTNNDVNRQLNELPRIHRRQNPEAWHHYARESGIRLDNPAQGVRYDLHEMTIAAVIAGHGVALVPRMYVENELSCGMLVSPWPASDCLSKKFCLVKPMETGINEDALESFERWLLAEMNTLTSLNAER
- soluble on expression in E. coli: not soluble

Sequence: MGSDKIHHHHHHMSDLKVLVIGYMHPRNDKRVFRTVQALSKRSEVIYQYWTEKEELPFKENNIRYIPVKCSNRGNIFQKAVKRKQVDEKIRHLVETEDYDILYMHHFPATKPLKPFVVAKKRGKKIVYDIHEYHPQNFLSTLPRPLSDLKGFVMWRIFKKQLQLSDLCIFVSEETRNDVVAKTGLDPEKTFIVPNYASMKIEPDPDKKKMEIVLVGKTPRNLIHEKKLIRALVERGFSFRIIGMDSEAFSDVPHTYTSFLPYEKMMEELSKSMFSLISYKPTGKEDKNYLYSLPHKFYDSIAAGTPVIVKNSFVSMAKMVEDLGIGVVIDPANVEESLKRIENACQRYEEILENIRRHQEGFVWDEKKEEEFLERVMG
- soluble on expression in E. coli: not soluble

Sequence: MSLIEFNKKTNTLEQVQYKYTLQDVSEPNLYRDIFSYDEIPKCTFNHRKVPMAPPDEIWITDTTFRDGQQSRAPYTVEQIVHLYDLLHKLGGPKGIIRQCEFFLYSDRDKQAVYKCLERGYKYPEVTSWIRATKSDFQLAKDMGMKESGILVSCSDYHIFKKLNMTRKQALEHYMSIVKSAIEVGIRPRCHFEDITRADFYGFVVPFAIELRKLMEESGVPIKIRACDTLGYGVSYPGAALPRSVPGIIYGLRHYAGFPSELIEWHGHNDFYKAVCNAATAWLYGASAVNCSLLGIGERTGNTPLEAMVIEYAQLRGTTDSMDTTVITEIAEYYEKELGYQIPPRTPFVGKHFNVTQAGIHADGLLKDEEIYNIFDTAKLLNRPVGVAINQTSGLAGIAHWINSHFGLEGAKRIDKRDERIVKIKEWVDEQYKAGRVTSIGDDELEEVIRKLAPEIFDLALEGHHHHHH
- soluble on expression in E. coli: soluble

Sequence: MAAERKTKLSKNLLRMKFMQRGLDSETKKQLEEEEKKIISEEHWYLDLPELKEKESFIIEEQSFLLCEDLLYGRMSFRGFNPEVEKLMLQMNAKHKAEEVEDETVELDVSDEEMARRYETLVGTIGKKFARKRDHANYEEDENGDITPIKAKKMFLKPQD
- soluble on expression in E. coli: soluble

Sequence: MMEPITKETRFNELPQQIKQKLINIYRSSHQQYLSMEMLKPTKFNLLYSQTQDLQTRNLQKNFKLLVESAEKLKRMWNLNKDEVDFRYLHENLKKSLEEFKEEVMLYKKNEGNTEFLDEIAMTYAMLRNKLESLTKERRA
- soluble on expression in E. coli: not soluble
